Measurements as given in US20090104196.

Target: AR co-purified in the TAP-LSD1/AR complex (UniProt P10275)
Sequence (P10275 whole entry, one chain of several): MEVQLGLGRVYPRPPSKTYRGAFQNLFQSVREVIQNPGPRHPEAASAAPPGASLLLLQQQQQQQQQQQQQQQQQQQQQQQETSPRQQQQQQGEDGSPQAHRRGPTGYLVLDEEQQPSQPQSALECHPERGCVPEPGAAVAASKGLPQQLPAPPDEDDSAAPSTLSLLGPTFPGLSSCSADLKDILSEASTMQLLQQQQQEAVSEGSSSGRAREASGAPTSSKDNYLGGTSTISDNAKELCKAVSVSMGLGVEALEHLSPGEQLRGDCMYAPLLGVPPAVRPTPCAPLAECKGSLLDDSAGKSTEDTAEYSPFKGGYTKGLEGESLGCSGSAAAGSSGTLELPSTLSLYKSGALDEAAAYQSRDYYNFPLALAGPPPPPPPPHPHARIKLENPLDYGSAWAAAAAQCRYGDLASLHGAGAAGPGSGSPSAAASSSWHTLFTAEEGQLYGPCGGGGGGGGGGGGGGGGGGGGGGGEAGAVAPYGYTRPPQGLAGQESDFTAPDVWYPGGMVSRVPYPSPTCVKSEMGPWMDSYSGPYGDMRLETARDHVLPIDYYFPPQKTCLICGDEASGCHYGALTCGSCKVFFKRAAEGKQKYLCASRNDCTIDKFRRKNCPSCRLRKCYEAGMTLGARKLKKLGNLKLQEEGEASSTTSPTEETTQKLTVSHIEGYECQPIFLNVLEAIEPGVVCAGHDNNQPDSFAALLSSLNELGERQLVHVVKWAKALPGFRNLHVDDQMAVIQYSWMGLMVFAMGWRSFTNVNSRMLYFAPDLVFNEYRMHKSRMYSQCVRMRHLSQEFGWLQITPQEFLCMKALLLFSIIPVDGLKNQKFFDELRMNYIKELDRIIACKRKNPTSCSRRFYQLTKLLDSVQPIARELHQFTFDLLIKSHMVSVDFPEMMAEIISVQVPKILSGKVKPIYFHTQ

Substance: TAP-LSD1 (LSD1 with N-terminal TAP tag), tandem affinity purified
- demethylation of dimethyl H3-K9 on HeLa nucleosomes in vitro (Western blot): The TAP-LSD1/AR complex demethylated dimethyl H3-K9 in vitro, whereas TAP-LSD1 or the TAP control failed to do so
